Experiment: soluble on expression in E. coli; label from the status in PepcDB or PDB records

Row | Sequence | soluble on expression in E. coli
1 | MVLAIAGCIEAYRTGHDARHGPRVPWERRLSEEDYLARLAAGSVSYSRDVQPILDSRCVVCHGCYDAPCQLKLESFDGLERGASKTPVYDTTRLQATPPTRLFIDAENVQGWRSKGFFPVLNERGDSPEANLRDSLLFRMLELKKAHPLPVSGALPDTFDFRLDRTLNCPTVEEFDDFEDDHPEWGMPYGFPGLSEREHDIVVKWLREGGFAPPPAPVSAEAASAVAQWEAFLNGSSPKERLFARYVYEHLFLGHLHFRGLAPREFFRLVRSRTPPGEPIREIATTRPYDSPGPGEFYYRLRPVQQSIVAKTHMVYELDDARMRRYRELFLDPEYAVDRLPGYAAADAANPFKTFVAIPPRSRYRFLLDDAHFFFSGFMKGSVCRGQAALNVIQDRFWVAFTHPDADPVSNDAQFLADQAERLRLPAEKENSPGIGDIWYTYRALEEDYQAAKAAWLRAHGERGGTTLADLWDGDGDNRDALLTVFRHFDSASVERGLVGDTPLTGWVVDYPLLERIHYLLVAGFDVFGNVGHQLATRLYMDFMRMEAENNFLRFLPSSIRQAERARWYKGIGARINDLWQSPRWGMGGETLIDYRTGNPKQEFFDRVRAGFGKAAGRPDPFTGCGVEVEGCGEGGEPALPPVQASVERELRRLAFARGGGVAFLPELSYLRIRTGSGGAEDGWIYSLVKNTALENVSMLFLEEIRRTPADDTVTLVRGIVGSYPNFFFDLDAAEVGEFVDAILSVDGSKAFGRRLVERFGVRRSNPAFWRISDWFNRRYLEASPVTAGWLDLSRYDNPLEHHHHHH | not soluble
2 | ESKSPIIQNVLSYITEHFSEGMSLKTLGNDFHINAVYLGQLFQKEMGEHFTDYLNRYRVNYAKEELLQTKDNLTIIAGKSGYTDMAYFYRQFKKHTGETPNRYRKIHQ | soluble
3 | SEASFVQTTMALGLPSKKASSRNVIVERRNLITVCRFSVKTLLEKYTAEPIDDSSEEFVNFAAILEQILSHRFKACAPAGPASWFSSDGQRGFWDYIRLACSKVPNNCVSSIENMENISTARAKGRAWIRVALMEKRMSEYITTALRDNRTTRRFYDSGAIMLREEATVLTGMLIGLSAIDFSFCLKGEVLDGKTPVVIDYTPYLKFTQSYDYLTDEEERHSAESSTSEDNSPEHPYLPLVTDEDSWYNKWHKMEQKFRIVYAQKGYLEELVRLRESQLKDLEAENRRLQLQLEEAAAQNQREKRELEGVILELQEQLPDPPPPPRTGLIPGDHAPLAQGSKELTTSLVNQWPSLSTLHRPEGASNSKLYRRHSFMSTEPLSAEASLSSDSQRLGEAKRDEEPWGPIGSSEPN | not soluble
4 | AMAELKEFLNKPAATSDVPPAPAGFDFDAAKKLVDVRCNKCHTLDSVADLFRTKYKKTGQVNLIVKRMQGFPGSGISDDDAKTIGIWLHEKF | soluble
5 | GAHMVTSNVVLVSGEGERFTVDKKIAERSLLLKNYLNDMGDDDDEDDDEIVMPVPNVRSSVLQKVIEWAEHHRDSNFPDEDDDDSRKSAPVDSWDREFLKVDQEMLYEIILAANYLNIKPLLDAGCKVVAEMIRGRSPEEIRRTFNIVNDFTPEEEAAIRRENEWAEDR | soluble
6 | MDNTNTGLKLFVLDTNILMHDPTAIYHFDEHDIYLPMVVLEELDSHKTGTSELARNVRQTNRMLVELMSNATHDQIVSGLPIPSYINSSNKKCSGRLFFQTDEFDQVVPSTLPGHKVDNTILATALGLQKKYYGKRQVIIISKDINLRIKAGILGIHAEDYYNDQVLDDVNLLHRGLHILDNNFWDSHAKDMGSWQESGKTFYKVSGPLVSQWNPNDCLSTEDDQFQALVKKIDGPNAVVQLIRDYTQPKHSVWGITARNREQNFSLNLLLDPDIDFVSLQGSAGTGKTLLTIAAGLTQVMDQNRYSEILMTRVTIPVGEDIGFLPGTEEEKMTPWMGALMDNLEVLHSSQVGGSFGRGATQDLLQNKIKIRSLNFMRGRTFLNRYIIIDEAQNLTSKQIKTLVTRAGPGSKIICLGDIKQIDTPYLTETTSGLTFAVDRFKSWEHSAHMTLTRGERSRLAFYAAEHL | not soluble
7 | MKKFKNILFATQGLPGHSDALEQAIQLAYNNRGQLAGLIAFPAFPADLQRYQEPYEQSYLNTLMETVEACRSQHHIHKDEVPFPLMVEHSEQPAVAIIKSALNHHIDLLIKEAEPMTHSQQGFKALDMTLLRKCPCPVWLHRPLAKPKANRRVAVAIDPITTTEQQKALALRLLELSRSIANTCDSRLHIVSCWEYYLENYLHDQVWIQVEQQQIAEEIAQAKIRHEQALRQLIDESGITGELVIHHLHGKPDELIPEWVTQENIDILVMGTLARTGIAGFVIGNTAENIVQSIECSLVALKPEGFVSPIKNE | soluble
8 | MNGGKETIDDMSLVVGMYGNYEVTKTGNLVGILEVSGINLDLLNETEQQDVFEDYGAFLMSTLGEGVDDTLQFLEPTIPVNMTTYLNGLKRRYLALQKDHPEQQFKIQLIASYLDHFTKVQESKNMTTKQHLLIVKVPIKDKSAESLNLAVAHLDEKIEQVKRDIENALTDFDVTAKILTSQEVQEILKNLINFNGLEHHHHHH | soluble
9 | MGSDKIHHHHHHMPVQQLFYKTAVPVSAKRHGDLSISSGKTYAFARHTNSIPLTALEFGPAAGTHPIVFAGTGEDVVPAIIVGTREDENLAVDADGNWQGTYIPAFARRYPFIFSLDKDKNQFTLLVDEEFEGANRDGRGERLFDSEGEQTGYLKSVLKFLQDYQAGFARTQAFCKRLKELDLLVPMQAEFSLGAGQKRTLGGFQVVDREKLKALSGEVLADLCRKDELECIYLHLSSMRHFRQMLERANTEASEAEPETDAADVAEPMAET | not soluble
10 | MIPDDEFIKNPSVPGPTAMEVRCLIMCLAEPGKNDVAVDVGCGTGGVTLELAGRVRRVYAIDRNPEAISTTEMNLQRHGLGDNVTLMEGDAPEALCKIPDIDIAVVGGSGGELQEILRIIKDKLKPGGRIIVTAILLETKFEAMECLRDLGFDVNITELNIARGRALDRGTMMVSRNPVALIYTGVSHENKD | soluble
11 | MGSDKIHHHHHHMMKRVLIKPLEPLMFRSQGEFEPLITGSHTAAQSLIIPRPSTIAGMLGYILFNKSSGTGDWLSDLTNLLDTIYGTFIETNGEYLFPLRMGNHLALVDQQHLINLPILLEKEYEQREKGIYELFYDKNKLFQIINHQDRIGISIDKSTRTVKEHYLYSARYLAFKKEVNYVIFIDNDAISDKINGKIVNFGGENRIAKLEVDDYKVDTSIEEEYYLTLSPILIPDEALDDLLDNISDYVTMGKVDKISLGFDIANTKRKEMLTAILEGSIVKRSIIDFIKKEINNNLLDRFTKYEKIGYNTLMNLCKLAFRKILS | not soluble
12 | MTDANYPIYGDIDGPIIMIGFGSIGRGTLPLIERHFNFDRTRLVVIDPREDIAAFLAERNIRHVQTHLTKENYKDVLKPLLKGVQGKGFCVNLSVDAASVDLMRICRKHGMLYIDTVVEPWPGFYFDADADNRARTNYSLRETMLKERARKPGGTTAVSTCGANPGMVSWFVKQALVNLAKDTGLDIEEPQSHDREGWAKLMQQLGVKGVHVAERDTQRAKEPKPFGAFWNTWSVEGFIAEGFQPAELGWGTHENWMPKNAKKQKKGSKAAIYLDQPGANTRVRTWCPGLGAQYGFLVTHNEAISISDYFTVRNDDGDVTYRPTCHYAYHPCNDAILSLHELFGNGGNPQPIQHVLGEDELVDGADELGVLLYGHDRNAYWYGSRLSLEEARSLAPSQNATGLQVSSAVLAGMAWAIENPEAGIVEADEMDYRRCLEVQRPYLGPVEGHYTDWTPLDGRPGLFPDNIDMSDPWQFRNILVRAAALEHHHHHH | soluble
13 | MSLGTLKLFNIGNMVTYSMNESSMISSKGMEILISDGKIIEIGPKVGDADQLFDCENKLVTPGFVDCHTHPVFLDGRENEFEMRLKGFSYEEIANEGGGIKNSVKSVRNSSEVELYNRVISRMDKFLKLGTTTIEAKSGYGLDINSELKSLKVIHEVNLAHQIDILPTFMGAHAVPNEYADDIDSYVDLICDSMIPQVAEQGIAIFNDVFCEKGYFNLKQSERILKKGLDYGLLPRIHSDEFNNLGASKLAGKLNLISADHLMKIEKDDIEIMADSNTKAVLLPGTTFFLGHSNYAPYHKLKEAGIEVAIASDYNPEGHHHHHH | soluble
14 | MEKKVLLTGFDPFGGETVNPSWEAVKRLNGAAEGPASIVSEQVPTVFYKSLAVLREAIKKHQPDIIICVGQAGGRMQITPERVAINLNEARIPDNEGNQPVGEDISQGGPAAYWTGLPIKRIVEEIKKEGIPAAVSYTAGTFVCNHLFYGLMDEISRHHPHIRGGFIHIPYIPEQTLQKSAPSLSLDHITKALKIAAVTAAVHEDDIETGGGELH | soluble
15 | SSFSWDNCDEGKDPAVIRSLTLEPDPIIVPGNVTLSVMGSTSVPLSSPLKVDLVLEKEVAGLWIKIPCTDYIGSCTFEHFCDVLDMLIPTGEPCPEPLRTYGLPCHCPFKEGTYSLPKSEFVVPDLELPSWLTTGNYRIESVLSSSGKRLGCIKIAASLKGI | soluble
16 | SAGNAEPPPAGAACPQDRRSCSGRAGGDRVWEDGEHPAKKLKSGGDEERREKPPKRKIVLLMAYSGKGYHGMQRNVGSSQFKTIEDDLVSALVRSGCIPENHGEDMRKMSFQRCARTDKGVSAAGQVVSLKVWLIDDILEKINSHLPSHIRILGLKRVTGGFNSKNRCDARTYCYLLPTFAFAHKDRDVQDETYRLSAETLQQVNRLLACYKGTHNFHNFTSQKGPQDPSACRYILEMYCEEPFVREGLEFAVIRVKGQSFMMHQIRKMVGLVVAIVKGYAPESVLERSWGTEKVDVPKAPGLGLVLERVHFEKYNQRFGNDGLHEPLDWAQEEGKVAAFKEEHIYPTIIGTERDERSMAQWLSTLPIHNFSATALTAGGTGAKVPSPLEGSEGDGDTD | soluble
17 | MAHHHHHHMGTLEAQTQGPGSMKGEPKVIERLNEALFLELGAVNQYWLHYRLLNDWGYTRLAKKEREESIEEMHHADKLIDRIIFLEGFPNLQTVSPLRIGQNVKEVLEADLKGEYDARASYKESREICDKLGDYVSKQLFDELLADEEGHIDFLETQLDLLAKIGGERYGQLNAAPADEAE | soluble
18 | LPRELRPLMKKPLGILYRGKGRDTIEKFAGELSSPTKLISVGDVTTFHLLEAGIIPDICIVDDRTKRKPVSSDVSVRNRDKVYEEVSVDNPAGIITDELIRTLCEAFASEKLLRIFVRGEEDLATLPVILLAPPGSVVLYGQPDEGVVFVEVTEKKKEEIRALFEKLISK | not soluble
19 | EQELSYFAVFRRVYVQRDEVRQIASIVQRGERDHTFRVGSLIFHTIGQLLPQQMQAFHSPKALFPVGYEASRLYWSTRYANRRCRYLCSIEEKDGRPVFVIRIVEQGHEDLVLSDISPKGVWDKILEPVACVRKKSEMLQLFPAYLKGEDLFGLTVSAVARIAE | not soluble
20 | MAHHHHHHSLISNHFLRDLYAIIVDDVGRFKPSAILDVGCGTGTADYFILSAFPDISVDCIDPSPYMISIARKKLSKFGSRVRAELGSSRSIPFDRRYDFVFTSISFHHWKCREDGLRNMAKYVSDHGVLAVYEYYRPNLRSFHRVAGKHALTMEDVEKLNIEGFTKKYEIRGEMMRIMFQRDEG | soluble
21 | MGSDKIHHHHHHMSQLDMKMKLKQYEQTVIEYLGAQGGHFIVASDDQTFVGILRTTLLKQLAISGDPLTSVTDPDYILKVIRDTSLRRKHLVVFIERMMQGKDTSMLVRQMKNTFANVKIIILTGETERQRLVLLHEIGADNFISKPISINTLIEKIAFTIKPQGKLGQLIDAAKALVAQGNFETALKAARKILEVKPNSAAGYLVMGDAWQGLGKLDKARESFEQASEHANLYMEPLKKLAELHKLTGDMNERLRYLERLDQLSPLNVERKVDMGEIHVELGNEERAEELFETAVQQATKDALNYIGEISEKIAAVYSSRDPHKAEKYYRQALDAKGSHLDHTDIATFNRLGIALRRQGKWQQAIEEYEKALHITPDDPNLMYNMSMAYAEGRQFDKACSIVMRIRQITPSFGSMDKTLSYNMGIIFSRGRQPADARVLFENALRLDPSFEKAQKALENLES | not soluble
